Measured values taken from US20140030725.

How the values were obtained:
[1] = system: HQ:CBS:HT (5xHQ tag:CBS variant 1A5:HaloTag), from pFNA:HQ(5x):CBS:HT(7)
[2] = system: CBS-HaloTag (CBS-HT) fusion protein (CBS variant 1A5 cloned into pFN19K HaloTag)
Sequence of CBS-HaloTag (CBS-HT) fusion protein (CBS variant 1A5 cloned into pFN19K HaloTag) (chain, as listed by the source mutant): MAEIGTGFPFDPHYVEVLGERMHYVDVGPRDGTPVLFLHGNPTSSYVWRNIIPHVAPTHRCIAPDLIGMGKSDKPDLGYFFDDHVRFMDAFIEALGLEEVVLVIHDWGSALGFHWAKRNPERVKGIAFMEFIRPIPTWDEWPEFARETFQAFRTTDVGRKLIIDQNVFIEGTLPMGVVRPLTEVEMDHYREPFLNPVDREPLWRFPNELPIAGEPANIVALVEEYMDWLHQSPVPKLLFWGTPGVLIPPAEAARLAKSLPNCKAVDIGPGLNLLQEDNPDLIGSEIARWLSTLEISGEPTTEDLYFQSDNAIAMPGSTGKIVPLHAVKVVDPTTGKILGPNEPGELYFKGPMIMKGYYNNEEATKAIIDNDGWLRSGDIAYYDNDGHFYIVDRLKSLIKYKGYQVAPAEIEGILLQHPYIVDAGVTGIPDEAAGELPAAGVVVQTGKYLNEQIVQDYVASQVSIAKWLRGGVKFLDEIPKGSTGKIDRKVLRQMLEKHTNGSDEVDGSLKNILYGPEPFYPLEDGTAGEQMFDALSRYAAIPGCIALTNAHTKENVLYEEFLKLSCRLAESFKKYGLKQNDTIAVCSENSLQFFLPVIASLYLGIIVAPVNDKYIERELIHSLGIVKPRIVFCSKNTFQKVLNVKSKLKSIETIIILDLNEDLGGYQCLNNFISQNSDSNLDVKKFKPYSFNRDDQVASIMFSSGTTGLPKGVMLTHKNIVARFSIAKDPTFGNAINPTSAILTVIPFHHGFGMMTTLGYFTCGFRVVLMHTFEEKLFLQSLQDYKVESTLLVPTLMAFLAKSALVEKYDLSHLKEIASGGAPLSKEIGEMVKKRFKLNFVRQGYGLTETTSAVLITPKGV

In the case of “recombinant caspase-3 (E. coli KRX lysate, pTS1k:caspase-3(T/S))”, the “INDUCED luminescence, HisLink elution fraction E1” value [1] was 2,951,899, the “INDUCED luminescence, HisLink elution fraction E2” value [1] was 40,913,496 and the “INDUCED luminescence, HisLink elution fraction E3” value [1] was 3,287,059. For the same substance, the “INDUCED luminescence, HisLink elution fraction E4” value [1] was 215,580, the “INDUCED luminescence, HisLink elution fraction E5” value [1] was 48,068 and the “INDUCED luminescence, HisLink purification sample HSS” value [1] was 12,875,742. The “INDUCED luminescence, HisLink purification sample NSM” value [1] was 5,822,003, the “INDUCED luminescence, HisLink purification sample WASH” value [1] was 3,706,541 and the “INDUCED luminescence, purified HQ:CBS:HT immobilised on HaloLink plate” value [1] was 661,597. For the same substance, the RESPONSE, HisLink elution fraction E1 [1] was 699 fold, the RESPONSE, HisLink elution fraction E2 [1] was 212 fold and the RESPONSE, HisLink elution fraction E3 [1] was 178 fold. It also gave an RESPONSE, HisLink elution fraction E4 [1] of 191 fold, an RESPONSE, HisLink elution fraction E5 [1] of 178 fold and an RESPONSE, HisLink purification sample HSS [1] of 43 fold. For the same substance, the RESPONSE, HisLink purification sample NSM [1] was 33 fold, the RESPONSE, HisLink purification sample WASH [1] was 479 fold and the RESPONSE, purified HQ:CBS:HT immobilised on HaloLink plate [1] was 96 fold. The “INDUCED luminescence (5 min; CBS-HT from wheat germ extract + E. coli lysate containing caspase-3)” value [2] was 4,626,173, the “INDUCED luminescence, CBS-HT immobilised on HaloLink RESIN” value [2] was 1,635,259 and the “INDUCED luminescence, CBS-HT immobilised on HaloTag-ligand plate, 0 min” value [2] was 1,226. For the same substance, the “INDUCED luminescence, CBS-HT immobilised on HaloTag-ligand plate, 1 min” value [2] was 1,636, the “INDUCED luminescence, CBS-HT immobilised on HaloTag-ligand plate, 2 min” value [2] was 2,267 and the “INDUCED luminescence, CBS-HT immobilised on HaloTag-ligand plate, 3 min” value [2] was 2,147. The “INDUCED luminescence, CBS-HT immobilised on HaloTag-ligand plate, 4 min” value [2] was 2,297, the “INDUCED luminescence, CBS-HT immobilised on HaloTag-ligand plate, 5 min” value [2] was 2,857 and the “INDUCED luminescence, CBS-HT immobilised on HaloTag-ligand plate, 6 min” value [2] was 3,107. The “INDUCED luminescence, CBS-HT immobilised on HaloTag-ligand plate, 7 min” value [2] was 3,377, the “INDUCED luminescence, CBS-HT immobilised on HaloTag-ligand plate, 8 min” value [2] was 3,037 and the “INDUCED luminescence, CBS-HT immobilised on HaloTag-ligand plate, 9 min” value [2] was 3,667. The “INDUCED luminescence, sample AS (HaloLink resin immobilisation experiment)” value [2] was 5,162,108, the “INDUCED luminescence, sample FT (HaloLink resin immobilisation experiment)” value [2] was 232,117 and the RESPONSE (induced/basal luminescence; 5 min; CBS-HT from wheat germ extract) [2] was 441 fold. For the same substance, the RESPONSE, CBS-HT immobilised on HaloLink RESIN [2] was 146 fold, the RESPONSE, CBS-HT immobilised on HaloTag-ligand plate, 0 min [2] was 19 fold and the RESPONSE, CBS-HT immobilised on HaloTag-ligand plate, 1 min [2] was 102 fold. For the same substance, the RESPONSE, CBS-HT immobilised on HaloTag-ligand plate, 2 min [2] was 21 fold, the RESPONSE, CBS-HT immobilised on HaloTag-ligand plate, 3 min [2] was 33 fold and the RESPONSE, CBS-HT immobilised on HaloTag-ligand plate, 4 min [2] was 18 fold. It also gave an RESPONSE, CBS-HT immobilised on HaloTag-ligand plate, 5 min [2] of 23 fold, an RESPONSE, CBS-HT immobilised on HaloTag-ligand plate, 6 min [2] of 41 fold and an RESPONSE, CBS-HT immobilised on HaloTag-ligand plate, 7 min [2] of 60 fold. For the same substance, the RESPONSE, CBS-HT immobilised on HaloTag-ligand plate, 8 min [2] was 22 fold, the RESPONSE, CBS-HT immobilised on HaloTag-ligand plate, 9 min [2] was 32 fold and the RESPONSE, sample AS (HaloLink resin immobilisation experiment) [2] was 175 fold. For the same substance, the RESPONSE, sample FT (HaloLink resin immobilisation experiment) [2] was 73 fold.
